According to PMC7888582 (Protein Science : A Publication of the Protein Society, 2021):
Blank lines part the entries; values can stand above or below the molecule they belong to.

Experiments:
Experiment in all cases: SEC
[1] = biological target: GGGPS of Nitrososphaera viennensis (nvGGGPS) (Nitrososphaera viennensis)
[2] = biological target: mtGGGPS_W141A (Methanothermobacter thermautotrophicus)
[3] = biological target: mtGGGPS_W141H (Methanothermobacter thermautotrophicus)
SEC = biological target: the molecule itself

stoichiometry N [1]: 6
Molecule: GGGPS of Nitrososphaera viennensis (nvGGGPS) (enzyme)

stoichiometry N [2]: 2
Molecule: mtGGGPS_W141A (enzyme)

More lines, now with the values behind:

Molecule: mtGGGPS_W141H (enzyme)
stoichiometry N [3]: 6

B1: wild-type Methanothermobacter thermautotrophicus GGGPS (mtGGGPS) (enzyme)
chain: MKVEDYFHDILRERKIHLTLIDPEEQTPEEAVEIARAAIRGGTDGIMLGGSTTDSSELDNTARALRENIDVPIILFPGNTTGVSRYADAIFFMSLLNSTNPYWIIGAQALGAATVKKMGIEALPMGYLVVEPGGTVGWVGDTKPVPRNKPDIAAAYAMAAEFLGMRLFYLEAGSGAPEHVPEEMIALVKRCTDQILIVGGGIRSGEDAARVAGAGADVVVTGTVVENSDNVEDKIREIVEGMGSV
stoichiometry N (SEC): 6
